Assay results: US7790673 (NEW YORK UNIVERSITY, dated 2010)

Tests used:
[1] = target: T1, full-length βAPP (βAPP751 cDNA, in HEK293 cells) (UniProt P05067-8 18-751, limits assumed); test: immunoprecipitation of HEK293 cell lysate proteins with anti-cystatin C antibody, immunoblot with 22C11
T1 construct: whole, on cells; Tested by co-immunoprecipitation from cell lysates, not on intact cells; also called β amyloid precursor protein; cell associated full-length βAPP
Experimental: Media was replaced 16 hours after transient transfection, harvested 24 hours later, and spun at 4,500×g for 10 minutes at 4° C. Cells were harvested in RIPA buffer (1% NP-40, 0.5% cholic acid, 0.1% SDS; 150 mM NaCl, 10 mM Tris-HCl, pH 8.0) with protease inhibitors (7.5 μg/ml Aprotinin; 5 μg/ml leupeptin; 2 mM PMSF) and centrifuged for 5 minutes at 10,000 rpm at 4° C. Cellular and secreted proteins were immunoprecipitated with either polyclonal antibodies and Protein A Sepharose (Pharmacia Biotech) for 4 hours at 4° C. or with monoclonal antibodies overnight at 4° C. and with GammaBind Plus Sepharose beads (Pharmacia Biotech) for 2 hours at 4° C.
The interaction of cystatin C with βAPP was examined in HEK293 cells stably expressing either wild type or variant cystatin C genes, and transiently transfected with either wild type βAPP or vector cDNAs. […] The data indicates binding between cystatin C and cell associated full-length as well as sβAPP.

Aβ1-42 synthetic peptide = target: T2, Aβ1-42 synthetic peptide (UniProt P05067 672-713); test: ELISA, Aβ1-42-coated wells, 0-37.5 nM cystatin C
T2 construct: domain: Aβ1-42; Coated on microtiter wells, freshly dissolved; Also used in the fibril and oligomerization assays; also called Aβ42
Experimental: (§1) Two different batches of each peptide were used in the experiments. Wild type and variant cystatin C, purified from conditioned media as described above, were compared to urinary cystatin C (Calbiochem Biosciences). Polystyrene microtiter plates (Immunolon 2; Dynex Technology) were coated for 16 hours at 4° C. with freshly dissolved Aβ peptides (400 ng in 100 µl of NaHCO_3 $pH$ 9.6 per well). After blocking with 200 µl Superblock (Pierce), increasing concentrations of either wild type, variant or urinary cystatin C (0-37.5 nM) in 100 µl TBS-T (20 mM Tris-HCl, 150 mM NaCl pH 7.4, containing 0.1% Tween-20) were added to the Aβ-coated wells and incubated for 3 hours at 37° C. Bound cystatin C was detected with 100 µl polyclonal anti-cystatin C antibody (1:600) followed by 100 µl horseradish peroxidase-conjugated F(ab')2 anti-rabbit IgG (1:4000, Amersham) and developed using 100 µl 3,3',5,5'-tetramethyl-benzidine as substrate; Absorbency was read at 450 nm after stopping the reaction with 100 µl 2.5N sulfuric acid. Non-linear regression analysis, estimation of dissociation constants and comparison of protein binding data were assessed for statistical significance with GraphPad Prism software (GraphPad, San Diego, Calif., USA). P values were calculated by one-way ANOVA of three independent repeated measures of duplicate samples. […]

Aβ1-40 synthetic peptide = target: T3, Aβ1-40 synthetic peptide (UniProt P05067 672-711); test: ELISA, Aβ1-40-coated wells, 0-37.5 nM cystatin C
T3 construct: domain: Aβ1-40; Coated on microtiter wells, freshly dissolved; also called Aβ40
Experimental: as §1

binding result [1]: binds
binding result (Aβ1-42 synthetic peptide): binds
binding result (Aβ1-40 synthetic peptide): binds
B1: variant human cystatin C (L68Q, HCHWA-I variant) (other, UniProt P01034 27-146, looked up)
chain: SSPGKPPRLVGGPMDASVEEEGVRRALDFAVGEYNKASNDMYHSRALQVVRARKQIVAGVNYFLDVEQGRTTCTKTQPNLDNCPFHDQPHLKRKAFCSFQIYAVPWQGTMTLSKSTCQDA
notes: mature; Position 68 counts on the mature protein, not on the precursor with signal peptide; also called cystatin C-V; CysC-V
